US20100183614A1 (COVALENT BIOSCIENCE, published 2010)

Biological target: gp120 of HIV strain 97ZA009 (clade C, R5) (HIV-1 strain 97ZA009)
Assay: cell-based or functional assay

B1: scFv JL427 (scFv)
scFv: QSVLTQPPSVSGAPGQRVTISCSGSSSNFGLNYVYWYQHFPGTAPKLLIYRNDQRPLGVPARFSGSKSGTSASLAISGLRSEDEADYYCQSYDNSLSGWVFGGGTQLTVLGSSGGGGSGGGGSGGSALQVQLQQSGGGLVQPGRSLRLSCAASGFTFSSYGMHWVRQAPGKGLEWVSYIGRSGSHTNYADSVKGRFTISRDNSKNTLYLQINSLRAEDTAVYYCARGLPNYGMDIWGQGTTVTVSSGSASAPTLFPAAAHHHHHHGAAEQKLISEEDLNGAA
  HIV neutralization IC50, ng/mL (97ZA009, PBMC): 300 ng/mL
